From patent US20250090676A1

Molecular target: human folate receptor alpha on cells (human) (UniProt P15328)
Assay: cell-based or functional assay

Sequence of human folate receptor alpha on cells (human) (P15328 25-234 limits assumed): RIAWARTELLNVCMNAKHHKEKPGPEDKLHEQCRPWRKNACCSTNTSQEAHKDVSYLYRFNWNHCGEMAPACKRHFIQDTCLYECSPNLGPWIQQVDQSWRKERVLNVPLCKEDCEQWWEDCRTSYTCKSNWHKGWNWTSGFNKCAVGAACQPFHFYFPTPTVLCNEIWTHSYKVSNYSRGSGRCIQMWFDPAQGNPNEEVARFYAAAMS

## ADC Molecule 21 (Mov19-sulfo-SPDB-DM4) (antibody)
  fold shift of cell killing EC50 on Igrov1 cells on addition of naked antibody: 3 fold
